From patent US20220169693A1, “Screening Assays, Modulators and Modulation of Intracellular Signalling Mediated by Immunoglobulin Superfamily Cell Adhesion Molecules” (Monash University, priority 2018, published 2022)

Experiments:
AT1R = target: T1, AT1R (Homo sapiens, UniProt P30556); experiment: Functional competition: Ang II-induced p65/PCNA expression in AT1R-CHO cells transfected with full length mutant S391A-RAGE; assay type: cell-based; details: for transactivation of the over-expressed cytosolic tail in the presence of S391A-RAGE1-404 (p65): Ang II 1 μM 2 h (FIG. 7A)
T1 construct: Rluc8; expressed in transfected cells; S391A-RAGE transiently transfected
T1 sequence (P30556 1-359): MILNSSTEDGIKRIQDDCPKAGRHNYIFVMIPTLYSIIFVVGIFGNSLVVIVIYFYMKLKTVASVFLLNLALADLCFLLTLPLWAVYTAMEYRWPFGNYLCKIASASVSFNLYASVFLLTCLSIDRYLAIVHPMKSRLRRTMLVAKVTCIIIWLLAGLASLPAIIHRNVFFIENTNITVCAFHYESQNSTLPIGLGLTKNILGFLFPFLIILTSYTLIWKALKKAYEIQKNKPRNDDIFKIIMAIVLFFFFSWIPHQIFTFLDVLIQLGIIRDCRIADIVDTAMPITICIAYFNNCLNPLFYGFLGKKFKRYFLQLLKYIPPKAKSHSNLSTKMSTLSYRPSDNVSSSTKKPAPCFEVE
Procedure: Adult retinal pigment epithelial (ARPE) cells were cultured in Dulbecco's modified Eagle's medium (DMEM)/F12 endothelial cell growth supplement (ECGS) supplemented media. Chinese Hamster Ovary (CHO) cells were cultured using F12 media (10% FCS with 2 mM glutamine). Human microvascular endothelial cells (HMEC) were cultured in MCDB 131 medium (10% FCS with 10 mM glutamine, EGF and hydrocortisone).
100 ng of AT1R-Rluc8 construct was transfected into CHO cells using Lipofectamine 2000 (Thermo). Stable transfectants were selected using G418. AT1R-CHO were then transiently transfected with the IgSF CAM and/or RAGE constructs using Lipofectamine 2000 (Invitrogen) and incubated for 16h.
After 2 hours of exposure to Ang II (1 μM) cells were placed in Trizol, mRNA extracted and cDNA synthesized. Changes in the gene expression of the NFκB subunit, p65 (RelA) or NFκB-activated target genes (e.g ICAM-1) were estimated by quantitative real-time RT-PCR, performed using the TaqMan system based on real-time detection of accumulated fluorescence (ABI Prism 7700, Perkin-Elmer Inc, PE Biosystems, Foster City, Calif., USA). Gene expression was normalized to 18S mRNA and reported as fold change compared to the level of expression in untreated control mice/cells, which were given an arbitrary value of 1.

[1] = target: T2, untagged RAGE (RAGE cDNA co-transfected) (UniProt Q15109 23-404); experiment: BRET saturation assay, competition with EpCAM/Rluc8 (FIG. 11D)
T2 construct: whole, on cells
T2 sequence (Q15109 23-404): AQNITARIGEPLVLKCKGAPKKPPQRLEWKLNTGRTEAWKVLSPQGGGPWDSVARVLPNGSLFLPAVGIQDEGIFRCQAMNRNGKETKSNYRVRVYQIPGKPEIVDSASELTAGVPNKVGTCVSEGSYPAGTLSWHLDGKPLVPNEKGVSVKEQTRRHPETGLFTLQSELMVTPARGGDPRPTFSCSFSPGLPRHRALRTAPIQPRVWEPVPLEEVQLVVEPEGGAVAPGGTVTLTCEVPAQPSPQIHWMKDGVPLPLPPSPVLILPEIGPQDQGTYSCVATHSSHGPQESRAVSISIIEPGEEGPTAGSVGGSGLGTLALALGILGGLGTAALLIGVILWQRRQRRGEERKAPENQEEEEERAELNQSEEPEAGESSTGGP
Procedure: (§1) The BRET ratio was calculated by subtracting the ratio of ‘acceptor emission’ over ‘donor emission’ for a cell sample expressing Rluc8-tagged protein alone from the same ratio for a cell sample expressing both Rluc8 and Venus-tagged proteins. Alternatively, the ligand-induced BRET signal was calculated by subtracting the ratio of ‘acceptor emission’ over ‘donor emission’ for a vehicle-treated cell sample from the same ratio for a second aliquot of the same cells treated with agonist.
(§2) For the BRET kinetic assays, the final pre-treatment reading is presented at the zero time point (time of ligand/vehicle addition). For the BRET saturation assays, fluorescence after light excitation was measured on an EnVision 2102 multi-label plate reader (PerkinElmer, Glen Waverley, Victoria, Australia) using a 485/14 excitation filter, 535/25 emission filter and D505 mirror. The fluorescence/luminescence ratio was generated by dividing the fluorescence values in arbitrary units (obtained with the EnVision) by the luminescence values also in arbitrary units (obtained as part of the BRET assay).

RAGE/Rluc8 = target: T3, RAGE/Rluc8 (UniProt Q15109 23-404); experiment: BRET saturation assay (FIGS. 13A, 13D)
T3 construct: whole, on cells; not shown: Rluc8, a variant of Renilla luciferase
T3 sequence (Q15109 23-404): as above
Procedure: as §1, §2

[2] = target: T4, Rluc8-labelled CADM4 (CADM4/Rluc8) (UniProt Q8NFZ8 21-388); experiment: BRET saturation assay (FIG. 12D)
T4 construct: whole, on cells; not shown: Rluc8, a variant of Renilla luciferase
T4 sequence (looked up): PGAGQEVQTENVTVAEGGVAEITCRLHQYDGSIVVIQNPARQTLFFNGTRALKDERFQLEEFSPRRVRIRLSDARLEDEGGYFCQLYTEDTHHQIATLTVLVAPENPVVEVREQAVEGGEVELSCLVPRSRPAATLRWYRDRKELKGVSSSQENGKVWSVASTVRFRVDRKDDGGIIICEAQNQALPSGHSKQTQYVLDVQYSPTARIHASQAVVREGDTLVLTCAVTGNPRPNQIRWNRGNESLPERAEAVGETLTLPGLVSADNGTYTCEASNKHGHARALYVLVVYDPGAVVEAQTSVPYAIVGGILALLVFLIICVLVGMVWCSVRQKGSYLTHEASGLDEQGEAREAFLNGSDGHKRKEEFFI
Procedure: as §1, §2

[3] = target: T5, Venus-labelled mouse ALCAM (ALCAM/Venus) (mouse, UniProt Q61490 28-583); experiment: Receptor-HIT BRET: ALCAM/Venus + β-arrestin2/Rluc8 ± untagged AT1, after AngII
T5 construct: also called mouse ALCAM/Venus; not shown: Venus, a variant of green fluorescent protein
T5 sequence: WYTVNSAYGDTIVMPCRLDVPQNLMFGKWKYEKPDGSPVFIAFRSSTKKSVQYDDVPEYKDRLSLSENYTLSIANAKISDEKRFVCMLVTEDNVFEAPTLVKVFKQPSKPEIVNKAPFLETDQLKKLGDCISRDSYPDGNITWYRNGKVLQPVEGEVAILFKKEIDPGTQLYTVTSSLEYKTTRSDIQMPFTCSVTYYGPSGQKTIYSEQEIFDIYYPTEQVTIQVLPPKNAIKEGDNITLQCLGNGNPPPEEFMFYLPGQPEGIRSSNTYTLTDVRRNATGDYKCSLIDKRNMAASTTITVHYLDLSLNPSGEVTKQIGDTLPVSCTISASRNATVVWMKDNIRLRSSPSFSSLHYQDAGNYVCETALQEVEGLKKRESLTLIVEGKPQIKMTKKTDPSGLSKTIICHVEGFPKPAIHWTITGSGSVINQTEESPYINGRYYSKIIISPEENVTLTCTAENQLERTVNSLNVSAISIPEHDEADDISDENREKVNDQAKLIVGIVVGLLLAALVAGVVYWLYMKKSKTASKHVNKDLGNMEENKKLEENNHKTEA
Procedure: as §1
(§3) GPCRs untagged with respect to the BRET system were then co-expressed in the HEK293FT cells, or the cells were transfected with pcDNA3 as a control. […] A ligand-induced BRET signal was indicative of recruitment of the BRET-tagged β-arrestin2 proximal to the BRET-tagged CAM, thereby indicating close proximity between the CAM and the activated GPCR.

[4] = target: T6, Venus-labelled CADM4 (CADM4/Venus) (UniProt Q8NFZ8 21-388); experiment: Receptor-HIT BRET: CADM4/Venus + β-arrestin2/Rluc8 ± untagged AT1, after AngII
T6 construct: whole, on cells; not shown: Venus, a variant of green fluorescent protein
T6 sequence (looked up): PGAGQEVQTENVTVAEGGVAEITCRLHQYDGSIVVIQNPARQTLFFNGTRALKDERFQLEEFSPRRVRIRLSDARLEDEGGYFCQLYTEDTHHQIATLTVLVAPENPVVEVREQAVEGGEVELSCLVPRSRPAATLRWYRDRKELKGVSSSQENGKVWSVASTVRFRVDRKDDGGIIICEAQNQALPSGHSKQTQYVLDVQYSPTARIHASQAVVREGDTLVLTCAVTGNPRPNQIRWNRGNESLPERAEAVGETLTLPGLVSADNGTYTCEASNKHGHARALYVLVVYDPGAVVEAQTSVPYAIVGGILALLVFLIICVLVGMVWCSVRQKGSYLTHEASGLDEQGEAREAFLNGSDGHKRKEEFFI
Procedure: as §1, §3

[5] = target: T4, Rluc8-labelled CADM4 (CADM4/Rluc8); experiment: Receptor-HIT BRET: CADM4/Rluc8 + β-arrestin2/Venus ± untagged AT1, after AngII
Procedure: as §1, §3

human ALCAM/Rluc8 = target: T7, human ALCAM/Rluc8 (human, UniProt Q13740 28-583); experiment: Receptor-HIT BRET: ALCAM/Rluc8 + β-arrestin2/Venus ± untagged AT1, after AngII
T7 construct: also called ALCAM/Rluc8 (human ALCAM); not shown: Rluc8, a variant of Renilla luciferase
T7 sequence: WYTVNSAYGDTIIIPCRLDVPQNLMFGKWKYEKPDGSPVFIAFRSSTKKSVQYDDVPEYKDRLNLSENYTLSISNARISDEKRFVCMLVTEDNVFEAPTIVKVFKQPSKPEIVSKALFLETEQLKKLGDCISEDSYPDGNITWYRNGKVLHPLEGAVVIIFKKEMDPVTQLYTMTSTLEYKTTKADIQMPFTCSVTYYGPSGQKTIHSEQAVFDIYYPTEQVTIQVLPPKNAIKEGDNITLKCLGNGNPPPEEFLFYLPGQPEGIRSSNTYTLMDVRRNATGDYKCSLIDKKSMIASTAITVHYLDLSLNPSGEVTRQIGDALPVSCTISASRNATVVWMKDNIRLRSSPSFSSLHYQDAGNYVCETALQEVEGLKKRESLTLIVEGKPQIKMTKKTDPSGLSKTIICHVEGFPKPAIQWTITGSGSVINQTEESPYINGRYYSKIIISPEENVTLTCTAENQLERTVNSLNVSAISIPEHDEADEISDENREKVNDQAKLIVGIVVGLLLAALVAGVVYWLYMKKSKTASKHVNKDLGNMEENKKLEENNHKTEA
Procedure: as §1, §3

mouse ALCAM/Rluc8 = target: T8, mouse ALCAM/Rluc8 (mouse, UniProt Q61490 28-583); experiment: as above
T8 construct: also called ALCAM/Rluc8 (mouse ALCAM); not shown: Rluc8, a variant of Renilla luciferase
T8 sequence: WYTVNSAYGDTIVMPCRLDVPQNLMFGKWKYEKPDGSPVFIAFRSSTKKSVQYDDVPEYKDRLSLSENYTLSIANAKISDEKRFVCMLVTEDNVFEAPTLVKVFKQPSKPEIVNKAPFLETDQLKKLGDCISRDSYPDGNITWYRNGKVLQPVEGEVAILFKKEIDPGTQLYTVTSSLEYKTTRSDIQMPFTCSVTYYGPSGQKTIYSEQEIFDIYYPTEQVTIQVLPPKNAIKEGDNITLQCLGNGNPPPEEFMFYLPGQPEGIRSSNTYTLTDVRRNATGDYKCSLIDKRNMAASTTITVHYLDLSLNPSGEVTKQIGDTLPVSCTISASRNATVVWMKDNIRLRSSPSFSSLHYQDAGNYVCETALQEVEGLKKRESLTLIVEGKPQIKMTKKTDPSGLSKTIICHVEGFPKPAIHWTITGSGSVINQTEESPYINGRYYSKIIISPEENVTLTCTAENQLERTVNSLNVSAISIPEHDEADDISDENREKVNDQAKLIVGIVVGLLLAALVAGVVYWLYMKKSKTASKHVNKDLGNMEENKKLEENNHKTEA
Procedure: as §1, §3

Molecule: MSVRQKGSYLTHEASGLDEQGEAREAFLNGSDGHKRKEEFFI [CADM4336-388]
- transactivation of the over-expressed cytosolic tail in the presence of S391A-RAGE1-404 (p65) (AT1R; AT1R-CHO cells): able to overcome inhibition of transactivation

Molecule: MKKSKTASKHVNKDLGNMEENKKLEENNHKTEA (Synthetic peptide - Truncated amino acid sequence of human ALCAM protein corresponding to residues 551 to 583 (corresponding to the cytosolic tail of ALCAM)) [ALCAM551-583]
- transactivation of the over-expressed cytosolic tail in the presence of S391A-RAGE1-404 (p65) (AT1R; AT1R-CHO cells): able to overcome inhibition of transactivation

Molecule: S391A-RAGE1-404: full length human mutant S391A-RAGE
- ability of Ang II to induce p65-NFκB expression after transfection of the mutant (AT1R; AT1R-CHO cells, Ang II 1 μM 2 h, vs pCIneo (FIG. 7A)): fails to confer the ability of Ang II to induce expression
- transactivation by AT1R as indicated by PCNA expression after transfection of the mutant (AT1R; Ang II 1 μM 2 h, vs pCIneo (FIG. 7B)): unable to be transactivated

B1: Venus-tagged Angiotensin II receptor 1 (AT1/Venus) (receptor, UniProt P30556 1-359, looked up)
chain: MILNSSTEDGIKRIQDDCPKAGRHNYIFVMIPTLYSIIFVVGIFGNSLVVIVIYFYMKLKTVASVFLLNLALADLCFLLTLPLWAVYTAMEYRWPFGNYLCKIASASVSFNLYASVFLLTCLSIDRYLAIVHPMKSRLRRTMLVAKVTCIIIWLLAGLASLPAIIHRNVFFIENTNITVCAFHYESQNSTLPIGLGLTKNILGFLFPFLIILTSYTLIWKALKKAYEIQKNKPRNDDIFKIIMAIVLFFFFSWIPHQIFTFLDVLIQLGIIRDCRIADIVDTAMPITICIAYFNNCLNPLFYGFLGKKFKRYFLQLLKYIPPKAKSHSNLSTKMSTLSYRPSDNVSSSTKKPAPCFEVE
notes: whole, on cells; not shown: Venus, a variant of green fluorescent protein
- binding result [1]: binds
- binding result (RAGE/Rluc8): binds
- binding result [2]: binds

B2: AT1 (untagged, co-expressed in HEK293FT cells) (receptor, UniProt P30556 1-359, looked up)
chain: MILNSSTEDGIKRIQDDCPKAGRHNYIFVMIPTLYSIIFVVGIFGNSLVVIVIYFYMKLKTVASVFLLNLALADLCFLLTLPLWAVYTAMEYRWPFGNYLCKIASASVSFNLYASVFLLTCLSIDRYLAIVHPMKSRLRRTMLVAKVTCIIIWLLAGLASLPAIIHRNVFFIENTNITVCAFHYESQNSTLPIGLGLTKNILGFLFPFLIILTSYTLIWKALKKAYEIQKNKPRNDDIFKIIMAIVLFFFFSWIPHQIFTFLDVLIQLGIIRDCRIADIVDTAMPITICIAYFNNCLNPLFYGFLGKKFKRYFLQLLKYIPPKAKSHSNLSTKMSTLSYRPSDNVSSSTKKPAPCFEVE
notes: whole, on cells; Untagged with respect to BRET (Receptor-HIT assays); also called Angiotensin II receptor 1
- binding result [3]: binds
- binding result [4]: binds
- binding result [5]: binds
- binding result (human ALCAM/Rluc8): binds
- binding result (mouse ALCAM/Rluc8): binds
